In the DeepSol protein solubility set:

Experiment: soluble on expression in E. coli; label from the status in PepcDB or PDB records
For “MSLRVQLILHLEIPKEVCRSLEVDNYINNSIEINLKCEKKPTLYIKTHSIGSLKSILDDFFRCQNAAMEVYNLIKTYTIRNVTKDDLDDFLELYFKAYRGFDKYYYKKKKWARWYFKWLMKRDEDGFFVCEVNGKPVGFVACDCNWISNIEKREVAEIHEIFVDPDFRGRGIGTALINKAIEYAKKRGRRIVELWVGVENKGAIEFYKRLGFEEKEVVKGWLRMVKRIEGHHHHHH”, the “soluble on expression in E. coli” value was “not soluble”. With “MSLRVTDFSFELPESLIAHYPMPERSSCRLLSLDGPTGALTHGTFTDLLDKLNPGDLLVFNNTRVIPARLFGRKASGGKIEVLVERMLDDKRILAHIRASKAPKPGAELLLGDDESINATMTARHGALFEVEFNDERSVLDILNSIGHMPLPPYIDRPDEDADRELYQTVYSEKPGAVAAPTAGLHFDEPLLEKLRAKGVEMAFVTLHVGAGTFQPVRVDTIEDHIMHSEYAEVPQDVVDAVLAAKARGNRVIAVGTTSVRSLESAAQAAKNDLIEPFFDDTQIFIYPGFQYKVVDALVTNFHLPESTLIMLVSAFAGYQHTMNAYKAAVEEKYRFFSYGDAMFITYNPQAINERVGEEGGSHHHHHH” the “soluble on expression in E. coli” value was “soluble”. For “MSLSAELLTSRDQQNFVVRATRADDVTIDVTSEAKWSVGDEKIVKLQGTTLLPAADGETKLTIEYSGFKSEVPVKVEQAGAERAVSFKQDVMPVFMRSGCNTGSCHGAARGKDGFRLSLFGFDPNGDYDRVTRELAARRINLAVPEASLLMEKAIGSVPHTGGKLFDQDSEYYSTLLRWLETGAQRDASEPPLCEKIEIYPPKAVLEGEGAKQQFIVKGFYADGTTRDITDLAVFLTSNDNSVPVGKDGMAVAANRGEAFVMARFDTHTVGSQVIVLPKDLNYEKPAIEGNYIDKLVGAKLHKLRITPSGLCTDEEYLRRVTIDITGQLPSEEEYAEFMADQSADKRVKLVDRLLERKEFAEIWAMKWAQLLMIKSENNRVSYKSAFLYNSWLQEKIANGVPLDEMVREMLGATGGTFSNPPTNFYEIERDTLKTAENVAQVFMGIRTQCAQCHNHPFDRWTMDDYYSFAAFFAQVGRKNAEDEREGHHHHHH”, the “soluble on expression in E. coli” value was “not soluble”. In the case of “MSLSAVKIAVILPMTGGISAFGRMVWEGIQIAHEEKPTVLGEEVELVLLDTRSEKTEAANAAARAIDKEKVLAIIGEVASAHSLAIAPIAEENKVPMVTPASTNPLVTQGRKFVSRVCFIDPFQGAAMAVFAYKNLGAKRVVVFTDVEQDYSVGLSNFFINKFTELGGQVKRVFFRSGDQDFSAQLSVAMSFNPDAIYITGYYPEIALISRQARQLGFTGYILAGDGADAPELIEIGGEAVEGLLFTTHYHPKAASNPVAKKFVEVYKEKYGKEPAALNALGYDAYMVLLDAIERAGSFDREKIAEEIRKTRNFNGASGIINIDENGDEGHHHHHH”, the “soluble on expression in E. coli” value is reported as “soluble”. For “MSLSDNVDVDVLSLVQNDALEESVAINSMISKARANFSGSLLQFQTRVSSVYGETNEENAVNPLDPEHICKAFSDACIGLDIEIKEKLIVYKQFDRYVMGNLVECLEEANKIMIQAGVMPNLKYTAKKSRVTPRSTSDVSARPLEAQSDANGYDGAGDVFSQVQELLSALRNTASNPEQQQGDPNTGAGGRQAPPPGNVQFIADADLLSILSRLQHSVRTENLAEGPVVALDLRTAVQGLLSEESQKSGKATALDQIDEDLINLVSMLFEFILDDYNLSAPIQVLISRLQIPILKVAIRDKSFFSKPSHPARKLLNALAKAGIGWSDASEKKRDKLYEQIHRAVQRILEEFNGESELFEEIYQEFSQYLSREERKAKLVEQRTKEAEIGRVKSHKAHQVVEQILSEKIAAQPLPPVAVELLRGGWSRVMFLAYLKEDTEHRLNQCTKVVDELTWCLQPHAEVEARQRWVKVVPQLLKNLKAGLKEVSYNSAKLEHMLGELKKALTETFKQQSITSEGHHHHHH”, the “soluble on expression in E. coli” value was “not soluble”. With “MSLSDPHHPHIQTHNAWVEFPIFDAKSRSLKKAVLGKAGGTIGRNNSNVVVIEALRDITMELNLGDRVGLVGHNGAGKSTLLRLLSGIYEPTRGWAKVTGRVAPVFDLGIGMDPEISGYENIIIRGLFLGQTRKQMQAKVDEIAEFTELGEYLSMPLRTYSTGMRVRLAMGVVTSIDPEILLLDEGIGAVDADFLRKAQSRLQNLVERSGILVFASHSNEFLARLCKTAIWIDHGVIRLAGGIEEVVRAYEGEDAARHVREVLAETEGHHHHHH” the “soluble on expression in E. coli” value was “soluble”. For “MSLSDPVKVFLADNLRRYDAAVLVMSLPGFYRISADLMIEKNHDVPVVVVDDAGRFAVAASAGHAGGSDELAAYIAGIIDGQAVITDGIESGGRVSVEKIARSLLATIANPECIIPVNAAIANGEHVPVIFRSKKRSMLRRLFAESSDEKHGYAIVLADEPGEDANTCYLIPDDISIGIGFNSSADAELISACLERFLEEAGLAWEDIDYVSSIKDLPDVSIIRKGTRFVKFDPADIRDIDPEMLTHVSDKARDVFGVPGVAEPCAIRSLGPGSKIFLPFRSCGRSVTLAAARREGHHHHHH”, the “soluble on expression in E. coli” value was “soluble”. With “MSLSEKPCERVVLDTSVFTNPSVAAVFGDNATSALAQFVILARQVSPRMEFYMPPSVLGELHHFTDAEHLPGDLELVIKLRAPRRHDISVPGMFLYELIEDIRQRIDRGLRVAEKAVREVQPTSVDRTIRWLRDRYRDALRTGLLDSSEDLDVILLAVELDGAVASADRGLLQWAEKGGLRLIPPQRLRSILEHLIENGTAGEEGHHHHHH” the “soluble on expression in E. coli” value was “soluble”. For “MSLSELIFYTNPMSRGRIARWMLEEVGIPYKTEILGFETSMKSPAYRLINPMAKVPAIKHGDTIVTEAAAICAYLADAFPGANLAPTPKARGLYYRWMFFAAGPLEMAASMKAMGFEVPKEKLRMAGCGSYADVMNTLERAVSENRFIAGDLFTAADVYVGAHVGWGLHFGTIEKRPAFTDYMAHLTDRPAFKRAAQLDEEAAKELQAAGEGHHHHHH”, the “soluble on expression in E. coli” value was “soluble”. In the case of “MSLSFDVVFVGHRRGEVRSDNAMLGLLCDAAFDELTRPDVVIFPGGIGTRTLIHDQTVLDWVREAHRHTLLTTSVCTGGLVLAAAGLLNGLTATTHWRVQDLFNSLGARYVPQRVVEHLPERVITAAGVSSGIDMGLRLVELLVSREAAEASQLMIEYDPQPPVDAGSLAKASPATHRLALEFYQHREGHHHHHH”, the “soluble on expression in E. coli” value is reported as “not soluble”. In the case of “MSLSFTSTIKVVIADDHAILREGLKQILAETEDIEVVADAKNAAEAIKLAGTKGLDVVVLDISLPDRSGIEACNIIKKEHPGVAVLMLSMHREDAYAIRALRAGAVGYLSKQSASDQLVTAIRTVAKGKKYISAEVALALADQVSGGLEKPIHDTLSNREFQTLTMIASGLSVSEIAENLSLSVKTVSMYRARLLEKLNLRHNAELTHYAIKNNLIDEGHHHHHH”, the “soluble on expression in E. coli” value is reported as “soluble”. For “MSLSGCASPASASGASALSVWDLFQGGDGMLMDDMIEAVSKGAGGAEGFEIDRTILDWGPSYYTKLAMSAAGGRASDVAAMHLSRLAGYAPGGLVDAFDLDLLAEYGVTEKDFTPAVWARTRHEGTVYAIPLDVHPFIVFYDKKAAERAGLLDAAGELAPMGSPEALLEAGKALAEATGESGILFGHVTDTAQNWRLFAGLYAQTGAAFDLPDGGPPEIDVDAAVRVVTLMTRLFDGKTNPSNLDYNGALAAFSSGRGGMAMLGEWELPTLKKSGMELGAAPFPQVFEKPAVYTDSHSFVLPHQDSPDPARRREAHRYVAQILAQSLTWASAGHIPAYQPVLAEPEYAALDPQSSYADAAEVAVLDPPNWFAGAGSNFQNRMCQPLQSALLGDTTPEKAVRQMVREADTLLRQPNPVAEGHHHHHH”, the “soluble on expression in E. coli” value was “soluble”. In the case of “MSLSGMELSYRRSDLIFKRPAGTSRGVLTSKPTWFVRLDIDGHGGQGEVSLIPGLSLDPEEQIGRELDLLARRLRAEEPIRLRQFLAERGGADFSDYRSVLTDIAGILDSWQVSTDGRFPALRFALEMALLDLLSGGRQEWFASDFTRGEKRIPVNGLIWMGEAAFMQEQIEAKLAEGYGCLKLKIGAIDFDKECALLAGIRESFSPQQLEIRVDANGAFSPANAPQRLKRLSQFHLHSIEQPIRQHQWSEMAALCANSPLAIALDEELIGLGAEQRSAMLDAIRPQYIILKPSLLGGFHYAGQWIELARERGIGFWITSALESNLGLAAIAQWTALYQPTMPQGLGTGQLYTNNLPSNLAVDGGLLGVSEGHHHHHH”, the “soluble on expression in E. coli” value is reported as “soluble”. For “MSLSHLLELYINFKGEAKEAIAFYEDVFDTKCQNLMTFGEAPEDPEHPINDEIKDLVMNASIIIEGTYVMISDVPDMFGFEVTEGNNLSLVVSTDDDEKIDRLFKRLSEGGTVTMPFLKLFGPKSMVPEGGSHHHHHH”, the “soluble on expression in E. coli” value was “soluble”. With “MSLSHVFEALSTETLPVRLGGNAAMKEKVGSDSSRWAIREVGDGNLNLVFIVTGEAGAVIVKQALPYVRLVGESWPLPLKRSFFEYHALKRQGARDPGMVPEILFFDEAQAIIVMEFLTPHIILRRALIDGRELPKIGRDLGLFVARTLFRGSDLSMVTREKKADVALFSDNVELCDITENLVFSDPYFEAKLNHHTTPQLDPIVAELRADRELKVEAQRLKHLFSAKAETLCHGDLHTGSVMVTDDETRVIDPEFAFYGPISFDVGMLIANFWMSYFSQAGHETAPGARDSMRAYLLDTIDTLWETFRAEFAALWRTERKGILYQASLFEDRQDPLAAEQALNIVIDEIWHEMLGFAGIETHRRILGLAHNADFETITDPDRRASCESKALKFGRHLAVNRQRIHSLRDIRETVERLEKEILAEGHHHHHH” the “soluble on expression in E. coli” value was “soluble”. For “MSLSIKLIAVDIDGTLVNSQKEITPEVFSAIQDAKEAGVKVVIATGRPIAGVAKLLDDLQLRDQGDYVVTFNGALVQETATGHEIISESLTYEDYLDMEFLSRKLGVHMHAITKDGIYTANRNIGKYTVHESTLVSMPIFYRTPEEMAGKEIVKCMFIDEPEILDAAIEKIPAEFYERYSINKSAPFYLELLTKNVDKGSAITHLAEKLGLTKDETMAIGDEENDRAMLEVVGNPVVMENGNPEIKKIAKYITKTNDESGVAHAIRTWVLEGHHHHHH”, the “soluble on expression in E. coli” value was “soluble”. In the case of “MSLSIPREFSNAIRFLSIDATLKAKSGHPGMPMGMADIATVLWTKFLKHNPNNPHWINRDRFVLSNGHGSMLLYSLLHLTGYDLSIEDIKNFRQLHSKTPGHPEYGYTPGVETTTGPLGQGVANAVGMALGEKLLSDRYNTPDLKVIDHHTYVFLGDGCLMEGVSHEACSLAGTLGLNKLVAFWDDNNISIDGDTKGWFSDNTPERFRAYGWHVIENVDGHDFVAIEKAINEAHSQQQKPTLICCKTVIGFGSPEKAGTASVHGSPLSDQERASAAKELNWDYQAFEIPQDVYKYWDAREKGQALEANWQGQRNLFKDSPKFDEFERVLSKELPVGLESAINDYIASQLSNPVKVATRKASQMVLEVLCKNMPEMFGGSADLTGSNNTNWSGSVWLNNTQEGANYLSYGVREFGMAAIMNGLSLYGGIKPYGGTFLVFSDYSRNAIRMSALMKQPVVHVMSHDSIGLGEDGPTHQPIEHVPSLRLIPNLSVWRPADTIETMIAWKEAVKSKDTPSVMVLTRQNLMPVVQTQHQVANIARGGYLVKDNPDAKLTIVATGSEVELAVKVANEFEKKGIKLNVASIPCVEVFATQAHEYKKTVIKDDIPAVFVEMAQPDMWYKYMPKAGGEVKGIYSFGESAPAEDLFKRFGFTVENISNIVAKYV”, the “soluble on expression in E. coli” value is reported as “soluble”. In the case of “MSLSITHQPANLTLAQIQQMIGGVMLLSQHSPLHRRYVVAEWLQRILPAFELNQFCYYEDEHGRPIAFCNWAFVSEQIRDELLSGVREISPSDWRSGQQIYIPEMIAPFGHGREVVNDLRRRVFLPWQGQKVCTVRGKVDAQNDRCIRKVQWFSIEGHHHHHH”, the “soluble on expression in E. coli” value is reported as “soluble”. For “MSLSKNKLKTPHCMLNLTFNWLSFCEMRGTRDTVEDMFVCKANPVDNQACMAIFDGHGGSKTSYYACGVFIKLYTSAKMIFSKQWLRGTMRGISESVKTKLFPDGSTAAVAMFKDRKLITSTIGDSRIIVMTEDGKLKYENRVHKPTQREEFERVHEAGGSVYGFRLQNSLALSRTMGDIAVPGISAESEEDEVNLDEEDRWVIVGCDGVFDELPMSFVGELCKKAKSAIGLSHSLRTAAFAARSQDNITVVALDVKTLYSKVELASDMNSTMREGHHHHHH”, the “soluble on expression in E. coli” value was “not soluble”.
